{"source": "patent US20040258656", "about": "“High affinity TGFbeta nucleic acid ligands and inhibitors” (published 2004)", "data": [{"target": "T1, TGFβ2 (transforming growth factor beta 2) (Homo sapiens, UniProt P61812 SEQ:1-112)", "T1 sequence": "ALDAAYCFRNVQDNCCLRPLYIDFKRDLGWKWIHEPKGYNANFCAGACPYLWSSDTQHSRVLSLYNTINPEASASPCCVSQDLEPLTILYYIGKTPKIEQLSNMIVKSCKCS", "test": "filter", "settings": "chain copies: 2 (inferred, homodimer)", "values": [{"binder": "GGAGGUUAUUACAGAGUCUGUAUAGCUACUCC (ssRNA, 2'-F C and U)", "note": "[21a-21(ML-116)]", "binding signal": "1000 x Kd of NX22284"}, {"binder": "GAGGUUAUUACAGAGUCUGUAUAGCUGUACUCC (ssRNA, 2'-F C and U; 3'-3' dT cap)", "note": "[NX22301]", "binding signal": "1 x Kd of NX22284"}, {"binder": "AGGUUAUUACAGAGUCUGUAUAGCUGUACUCC (ssRNA, 2'-F C and U; 3'-3' dT cap)", "note": "[NX22302]", "binding signal": "100 x Kd of NX22284"}, {"binder": "GGAGGUUAUUACAGAGUCUGUAUAGCUGUAC (ssRNA, 2'-F C and U)", "note": "[21a-21(ML-105)]", "binding signal": "1000 x Kd of NX22284"}, {"binder": "GGAGGUUAUUACAGAGUCUGUAUAGCGUACUCC (ssRNA, 2'-F C and U)", "note": "[21a-21(ML-114)]", "binding signal": "1000 x Kd of NX22284"}, {"binder": "GGAGGUUAUUACAGAGUCUGUAUAGCUGUCUCC (ssRNA, 2'-F C and U)", "note": "[21a-21(ML-115)]", "binding signal": "1000 x Kd of NX22284"}, {"binder": "GGAGGUUAUUACAGAUCUGUAUAGCUGUACUCC (ssRNA, 2'-F C and U)", "note": "[21a-21(ML-120)]", "binding signal": "1000 x Kd of NX22284"}, {"binder": "GGAGGUUAUUACAGAGUUGUAUAGCUGUACUCC (ssRNA, 2'-F C and U)", "note": "[21a-21(ML-128)]", "binding signal": "1000 x Kd of NX22284"}, {"binder": "GGAGGUUAUUACAGAGUCUGUAUAGCUGUACUCCCC (ssRNA, 2'-F C and U)", "note": "[21a-21(ML-94)]", "binding signal": "0.5 x Kd of NX22284"}, {"binder": "GGAGGUUAUUACAGAGUCUGUAUAGCUGUACUCCCCA (ssRNA, 2'-F C and U)", "note": "[NX22285]", "binding signal": "2 x Kd of NX22284"}, {"binder": "GGAGGUUAUUAGAGUCUAUAGCUGUACUCC (ssRNA, 2'-F C and U)", "note": "[21a-21(ML-101)]", "binding signal": "1000 x Kd of NX22284"}, {"binder": "GGGGUUAUUAAGAGUCUGUAUAGCUUACCC (ssRNA, 2'-F C and U)", "note": "[21a-21(ML-138)]", "binding signal": "10000 x Kd of NX22284"}, {"binder": "GGUUAUUACAGAGUCUGUAUAGCUGUACUCC (ssRNA, 2'-F C and U; 3'-3' dT cap)", "note": "[NX22303]", "binding signal": "> 100 x Kd of NX22284"}, {"binder": "GGAGGUUAUUACAGAGUCUGUAUAGC (ssRNA, 2'-F C and U)", "note": "[21a-21(ML-97)]", "binding signal": "1000 x Kd of NX22284"}, {"binder": "GGAGGUUAUUACAGAGUCUGUAUAGCUGUACUCC (ssRNA, 2'-F C and U)", "note": "[21a-21(ML-95)]", "binding signal": "1 x Kd of NX22284"}, {"binder": "GGAGGUUAUUACGAGUCUGUAUAGCGUACUCC (ssRNA, 2'-F C and U)", "note": "[21a-21(ML-132)]", "binding signal": "1000 x Kd of NX22284"}, {"binder": "GGAGGUUAUUAGAGUCUAUAGCCUCC (ssRNA, 2'-F C and U)", "note": "[21a-21(ML-102)]", "binding signal": "1000 x Kd of NX22284"}, {"binder": "GGGGUUAUUCAGAGUCUGUAUAGCUGACCC (ssRNA, 2'-F C and U)", "note": "[21a-21(ML-136)]", "binding signal": "10000 x Kd of NX22284"}, {"binder": "GGGGUUAUUACAGAGUCUGUAUAGCUGUACCC (ssRNA, 2'-F C and U)", "note": "[21a-21(ML-130)]", "binding signal": "2 x Kd of NX22284"}, {"binder": "GGAGGUUAUUACAGAGUCUGUAUAGCUGUA (ssRNA, 2'-F C and U)", "note": "[21a-21(ML-96)]", "binding signal": "1000 x Kd of NX22284"}, {"binder": "GGAGGUUAUACAGAGUCUGUAUAGCUGUACUCC (ssRNA, 2'-F C and U)", "note": "[21a-21(ML-118)]", "binding signal": "1000 x Kd of NX22284"}, {"binder": "GGAGAUAUUACAGAGUCUGUAUAGCUGUACUCC (ssRNA, 2'-F C and U)", "note": "[21a-21(ML-134)]", "binding signal": "10 x Kd of NX22284"}, {"binder": "GGAGGUUAUUACAAGUUGUAUAGCUGUACUCC (ssRNA, 2'-F C and U)", "note": "[21a-21(ML-122)]", "binding signal": "1000 x Kd of NX22284"}]}]}
